Measured values: patent publication US20250129419A1, “REAGENTS FOR LABELING BIOMOLECULES AND USES THEREOF” (Ultima Genomics, Inc., priority 2022, published 2025)

Key:
[1] = evaluation of dye-labeled nucleotides including guanine (sequencing assay); conditions: lacks the hyp10 linker
Description: Nucleotides including guanine or analogs thereof may perform more poorly in sequencing applications (e.g., as described herein) in base-calling accuracy. This may be related to photoinduced electron transfer from the nucleobase to a dye linked to the nucleobase, which may quench signal emitted by the dye and thus less dynamic range of signal. Accordingly, various dye-labeled nucleotides including guanine or analogs thereof are prepared and evaluated as provided herein. Examples of such dye-labeled nucleotides include:
Several of the structures shown above include the hyp10 linker which includes the sequence Gly-Hyp-Hyp-Hyp-Hyp-Hyp-Hyp-Hyp-Hyp-Hyp-Hyp from the N-terminal end. […] The remaining dye-labeled nucleotides are evaluated in a sequencing assay, as described herein. […] Additional structures including different numbers of hydroxyprolines, including hyp20 and hyp30 moieties, may also be incorporated into fluorescent labeling reagents.

[2] = target: bovine serum albumin (BSA) (Bos taurus, UniProt P02769); assay: fluorescence of BSA labeled with different ATTO 532 labeling moieties; conditions: BSA labeled with ATTO 532, FIG. 16
Description: The effect of functional separation between an optically detectable moiety (e.g., fluorescent dye) and a substrate was investigated using bovine serum albumin (BSA). BSA was fluorescently labeled with ATTO 532 according to the following schemes: in the absence of a linker providing separation between the BSA and ATTO 532 moieties (“Atto532”), using PEG16 as a linker to provide separation between the BSA and ATTO 532 moieties (“Atto532-PEG16”), using a hyp10 moiety to provide separation between the BSA and ATTO 532 moieties (“Atto532-hyp10”), and using a hyp30 moiety to provide separation between the BSA and ATTO 532 moieties (“Atto532-hyp30”). Labeled BSA was purified from free dye using Millipore centrifugal filters.

Sequence of bovine serum albumin (BSA) (P02769 25-607): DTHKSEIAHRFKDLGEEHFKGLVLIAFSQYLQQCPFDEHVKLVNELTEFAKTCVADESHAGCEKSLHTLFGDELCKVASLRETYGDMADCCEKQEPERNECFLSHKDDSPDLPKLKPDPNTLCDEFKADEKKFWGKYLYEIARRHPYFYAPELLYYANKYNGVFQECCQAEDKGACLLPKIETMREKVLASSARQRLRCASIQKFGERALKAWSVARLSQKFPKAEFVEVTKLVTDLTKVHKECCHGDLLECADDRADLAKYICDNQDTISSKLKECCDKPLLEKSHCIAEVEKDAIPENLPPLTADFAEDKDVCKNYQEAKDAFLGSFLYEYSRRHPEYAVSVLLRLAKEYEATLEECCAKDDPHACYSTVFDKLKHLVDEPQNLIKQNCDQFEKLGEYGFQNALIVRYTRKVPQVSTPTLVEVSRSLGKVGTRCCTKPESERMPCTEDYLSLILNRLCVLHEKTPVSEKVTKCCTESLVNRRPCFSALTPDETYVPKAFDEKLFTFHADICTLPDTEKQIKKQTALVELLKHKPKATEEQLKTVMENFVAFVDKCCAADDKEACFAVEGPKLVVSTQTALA

| Compound | quenching [1] | self-quenching on BSA protein [2] |
| --- | --- | --- |
| CCN1CCCc2cc3c(cc21)C(C)(C)C1=CC(=[N+](C)C)C=CC1=C3c1ccccc1C(=O)N(C)CCCC(=O)NC(CS(=O)(=O)[O-])C(=O)NCCSSCCC(=O)NCC#Cc1cn([C@H]2C[C@@H](O)[C@@H](COP(=O)(O)OP(=O)(O)OP(=O)(O)O)O2)c2nc(N)[nH]c(=O)c12 (some centres unmarked) [G4] | highly quenched | – |
| Atto532-PEG16: BSA labeled with ATTO 532 using PEG16 as a linker [reference compound] | – | did not improve quenching over ATTO 532 alone |
